Data on two molecules can be found in paper doi:10.1101/2022.12.09.519754, “Conformational restriction shapes inhibition of a multidrug efflux adaptor protein” (bioRxiv, 2022).

Series [1] concerns the molecule itself. The series is described as follows: native MS; AcrA^L in 100 mM ammonium acetate pH 7.4 with 0.03 % DDM.
Series [2] concerns the molecule itself. The series is described as follows: native MS; AcrA^L in 100 mM ammonium acetate pH 6.0 with 0.03 % DDM (2 x CMC); sampling cone 120 V, trap collision energy 50-200 V.
Series [3] addresses T1, AcrB in SMALP (styrene maleic acid lipid particle) native nanodiscs (E. coli, UniProt P31224 1-1049).
T1 construct: AcrB, inner membrane transporter of AcrAB-TolC, E. coli; Embedded in native lipid nanodiscs; also called trimeric AcrB SMALPs; source: E. coli C43(DE3) ΔacrAB, pET15b; extracted from membranes with 2.5% SMA 2000, purified (nickel NTA, PD-10 desalting)
T1 sequence: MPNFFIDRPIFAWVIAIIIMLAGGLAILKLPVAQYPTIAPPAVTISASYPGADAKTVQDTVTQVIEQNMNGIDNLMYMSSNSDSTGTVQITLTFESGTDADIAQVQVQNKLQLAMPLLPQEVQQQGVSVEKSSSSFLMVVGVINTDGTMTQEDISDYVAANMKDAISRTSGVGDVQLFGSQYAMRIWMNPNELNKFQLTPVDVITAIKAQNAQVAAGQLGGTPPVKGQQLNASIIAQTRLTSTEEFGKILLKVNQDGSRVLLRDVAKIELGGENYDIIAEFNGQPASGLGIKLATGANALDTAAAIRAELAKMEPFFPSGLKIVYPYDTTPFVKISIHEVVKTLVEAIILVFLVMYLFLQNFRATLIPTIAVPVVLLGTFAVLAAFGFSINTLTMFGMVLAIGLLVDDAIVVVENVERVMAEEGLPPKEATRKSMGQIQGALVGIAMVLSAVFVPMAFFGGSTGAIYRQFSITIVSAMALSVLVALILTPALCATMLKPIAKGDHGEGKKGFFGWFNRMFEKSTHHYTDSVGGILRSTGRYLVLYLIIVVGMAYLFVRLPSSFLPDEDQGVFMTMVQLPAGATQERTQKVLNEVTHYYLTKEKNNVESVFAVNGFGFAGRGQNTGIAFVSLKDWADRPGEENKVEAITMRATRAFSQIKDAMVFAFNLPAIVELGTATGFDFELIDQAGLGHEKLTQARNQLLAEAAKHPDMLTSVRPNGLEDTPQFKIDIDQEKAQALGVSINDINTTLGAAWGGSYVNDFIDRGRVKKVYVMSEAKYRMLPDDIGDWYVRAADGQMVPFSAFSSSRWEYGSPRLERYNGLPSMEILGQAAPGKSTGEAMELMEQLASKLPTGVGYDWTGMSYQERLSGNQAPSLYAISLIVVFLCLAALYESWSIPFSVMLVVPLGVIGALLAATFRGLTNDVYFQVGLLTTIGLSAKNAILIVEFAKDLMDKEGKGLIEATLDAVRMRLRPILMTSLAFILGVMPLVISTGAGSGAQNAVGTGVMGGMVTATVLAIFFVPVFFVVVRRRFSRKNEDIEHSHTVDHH
Description: native gel or EMSA; SMA-PAGE (native PAGE for SMALPs): AcrB in SMALP nanodiscs with AcrA^S or AcrA^SD; Novex Tris-glycine 4-20% gels, 25 mM Tris pH 8.8, 192 mM glycine, 150 V, 90-120 min, 4 °C, Coomassie stain. Particulars: both partners purified. Background: A gel shift assay detects complexes by their altered migration in electrophoresis.

Numbering of substitutions follows the chain as printed.

B1: AcrA^L (lipidated AcrA, expressed from full length AcrA with its signal peptide) (natural protein)
chain: CDDKQAQQGGQQMPAVGVVTVKTEPLQITTELPGRTSAYRIAEVRPQVSGIILKRNFKEGSDIEAGVSLYQIDPATYQATYDSAKGDLAKAQAAANIAQLTVNRYQKLLGTQYISKQEYDQALADAQQANAAVTAAKAAVETARINLAYTKVTSPISGRIGKSNVTEGALVQNGQATALATVQQLDPIYVDVTQSSNDFLRLKQELANGTLKQENGKAKVSLITSDGIKFPQDGTLEFSDVTVDQTTGSITLRAIFPNPDHTLLPGMFVRARLEEGLNPNAILVPQQGVTRTPRGDATVLVVGADDKVETRPIVASQAIGDKWLVTEGLKAGDRVVISGLQKVRPGVQVKAQEVTADNNQQAASGAQPEQSKS
modifications: lipidated (palmitoylation) at Cys25 after cleavage of signal peptide 1-24
notes: AcrA, periplasmic adaptor protein of AcrAB-TolC, E. coli; full length AcrA amplified from genomic DNA; signal peptide residues 1-24 are cleaved and Cys25 is lipidated, so the protein in the assay starts at Cys25; Measured in DDM micelles (0.03 % DDM, 2 x CMC); source: E. coli C43(DE3) ΔacrAB, pET28a; solubilised from membranes with 1% DDM, purified (HiTrap, SEC) in 0.03% DDM
As for B1, the results for the “stoichiometry N” value in series [1] and in series [2] were ≤ 5 and 2, respectively.

B2: AcrA^S (soluble AcrA lacking signal peptide and lipidation, Cys25Met) (natural protein)
chain: B1 chain with C1M
notes: AcrA, E. coli; lacks signal peptide residues 1-24; Cys25 replaced by a starting methionine (Met25); not lipidated; source: E. coli C43(DE3) ΔacrAB, pET28a; purified from the cytoplasmic fraction (HiTrap, SEC)
B2: in series [3], the stoichiometry N (in general, the number of molecules, sites or subunits per partner or assembly) turned out to be 1.
